According to the supplement of paper PMC10567573:
± gives the standard deviation.

Test: protein stability index of a GFP-peptide fusion (GPS, HEK-293T) (PSI 1-6); higher = more stable
Conditions: c terminus: a fixed tail appended
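Note: 24-mer peptide tiles fused after GFP, lentivirally expressed, FACS-sorted into six equal bins by GFP/DsRed ratio, decoded by Illumina sequencing, PSI is the read-weighted mean bin number.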

Sequence: KVIERGERLDELQDKSESLSDNAT [VAMP4]
- protein stability index (treatment: DMSO): 5.38 ± 0.13
- protein stability index (treatment: MLN4924 1 uM, 8 h): 5.33 ± 0.18

Sequence: IAQAEEQARKRQEEREKEAAEQAE [SMARCE1]
- protein stability index (treatment: DMSO): 5.24 ± 0.12
- protein stability index (treatment: MLN4924 1 uM, 8 h): 5.892 ± 0.034

Sequence: FSDVTFILDDGTISAHKPLLISSC [RHOBTB2]
- protein stability index (treatment: DMSO): 2.47 ± 0.15
- protein stability index (treatment: MLN4924 1 uM, 8 h): 2.25 ± 0.29

Sequence: ARMLSSNERDSSEPGNFIPLFTPQ [CDC25A]
- protein stability index (treatment: DMSO): 3.85 ± 0.25
- protein stability index (treatment: MLN4924 1 uM, 8 h): 3.96 ± 0.4

Sequence: RDSFMRHRGHCERRHRLGGVGAVP [ZBTB22]
- protein stability index (treatment: DMSO): 3.22 ± 0.35
- protein stability index (treatment: MLN4924 1 uM, 8 h): 3.25 ± 0.4

Sequence: DKDCSLDCAGSPQKPLCASDGRTF [SMOC2]
- protein stability index (treatment: DMSO): 4.68 ± 0.39
- protein stability index (treatment: MLN4924 1 uM, 8 h): 4.76 ± 0.34

Sequence: TSYRLQGLKPNSLYYFRLAARSPQ [PTPRD]
- protein stability index (treatment: DMSO): 2.33 ± 0.52
- protein stability index (treatment: MLN4924 1 uM, 8 h): 2.42 ± 0.39

Sequence: EGNQKGEQATSLAILRVIRLVRVF [KCNA1]
- protein stability index (treatment: DMSO): 2.2 ± 0.37
- protein stability index (treatment: MLN4924 1 uM, 8 h): 2.28 ± 0.37

Sequence: FLTYVPLLGLKAFLGLFFIVRFLE [FADS1]
- protein stability index (treatment: DMSO): 2.56 ± 0.6
- protein stability index (treatment: MLN4924 1 uM, 8 h): 2.17 ± 0.67

Sequence: EWIRFDQSNVLCSIFGICMVFSGL [PTGFR]
- protein stability index (treatment: DMSO): 2.87 ± 0.59
- protein stability index (treatment: MLN4924 1 uM, 8 h): 3.15 ± 0.071

Sequence: LRNIQGLFAPLKLQMEFKAVQQVQ [POMP]
- protein stability index (treatment: DMSO): 2.25 ± 0.44
- protein stability index (treatment: MLN4924 1 uM, 8 h): 2.28 ± 0.11

Sequence: RRDYLLLVMEGTDDGRLLEYDTVT [APMAP]
- protein stability index (treatment: DMSO): 2.26 ± 0.32
- protein stability index (treatment: MLN4924 1 uM, 8 h): 2.72 ± 0.13

Sequence: YFYDPIERDIEIGFLPWLMNEVEK [RSPH3]
- protein stability index (treatment: DMSO): 2.04 ± 0.74
- protein stability index (treatment: MLN4924 1 uM, 8 h): 2.42 ± 0.25

Sequence: GLKADTLKERYQKIGDTKRNTPIE [CSNK1G1]
- protein stability index (treatment: DMSO): 4.36 ± 0.26
- protein stability index (treatment: MLN4924 1 uM, 8 h): 4.53 ± 0.12

Sequence: LDLILAILALELICSLICLLIYTV [TMEM192]
- protein stability index (treatment: DMSO): 2.89 ± 0.55
- protein stability index (treatment: MLN4924 1 uM, 8 h): 3 ± 0.5

Sequence: LQRLSHSGSRVRVGFRLCNSTGGD [SCNN1D]
- protein stability index (treatment: DMSO): 3.14 ± 0.22
- protein stability index (treatment: MLN4924 1 uM, 8 h): 3.11 ± 0.18

Sequence: VRTTRGKRKRVDVEESEASSSVSI [LMNB1]
- protein stability index (treatment: DMSO): 5.13 ± 0.17
- protein stability index (treatment: MLN4924 1 uM, 8 h): 5.09 ± 0.44

Sequence: FLTVGSVLQMWHIVDKCTELLREG [ZBTB22]
- protein stability index (treatment: DMSO): 3.09 ± 0.55
- protein stability index (treatment: MLN4924 1 uM, 8 h): 3.4 ± 0.32

Sequence: SLLLTPQENESLFTFLGKKCVTMS [WASL]
- protein stability index (treatment: DMSO): 2.45 ± 0.15
- protein stability index (treatment: MLN4924 1 uM, 8 h): 2.5 ± 0.4

Sequence: GLLLESLVPFIVNDNITNNFFRFL [DYNC2LI1]
- protein stability index (treatment: DMSO): 2.9 ± 0.44
- protein stability index (treatment: MLN4924 1 uM, 8 h): 3.17 ± 0.62

Sequence: TLVMFQSLGERMNTFVRYLLKRIK [KCNK9]
- protein stability index (treatment: DMSO): 3 ± 0.54
- protein stability index (treatment: MLN4924 1 uM, 8 h): 2.73 ± 0.23

Sequence: LLLDCGAEVNAVDNEGNSALHIIV [FEM1B]
- protein stability index (treatment: DMSO): 2.39 ± 0.45
- protein stability index (treatment: MLN4924 1 uM, 8 h): 2.24 ± 0.42

Sequence: TMTNYDEAAMAIASLNGYRLGERV [ELAVL3]
- protein stability index (treatment: DMSO): 3 ± 0.35
- protein stability index (treatment: MLN4924 1 uM, 8 h): 3.17 ± 0.31

Sequence: GEEQAQLLHVSSPNLASDSDLSRR [KCNA1]
- protein stability index (treatment: DMSO): 5.36 ± 0.16
- protein stability index (treatment: MLN4924 1 uM, 8 h): 5.33 ± 0.11

Sequence: SFQMSEGSEAAVIPLDLGCTQVTQ [FAM189A2]
- protein stability index (treatment: DMSO): 4.56 ± 0.17
- protein stability index (treatment: MLN4924 1 uM, 8 h): 4.43 ± 0.31

Sequence: SHPACPLEFAYYFRPGHLLANACL [ZSWIM9]
- protein stability index (treatment: DMSO): 2.81 ± 0.54
- protein stability index (treatment: MLN4924 1 uM, 8 h): 2.52 ± 0.56

Sequence: EEIPVVICAAAGRMGATMAAINSI [GLT8D2]
- protein stability index (treatment: DMSO): 2.48 ± 0.52
- protein stability index (treatment: MLN4924 1 uM, 8 h): 2.22 ± 0.21

Sequence: DKMEAYNIDETCGRHHSQSTEVQA [TEKT4]
- protein stability index (treatment: DMSO): 4.91 ± 0.19
- protein stability index (treatment: MLN4924 1 uM, 8 h): 4.9 ± 0.17

Sequence: FWEEHKASLGREESRAPSPLLHKD [CBY2]
- protein stability index (treatment: DMSO): 4.61 ± 0.17
- protein stability index (treatment: MLN4924 1 uM, 8 h): 4.71 ± 0.21

Sequence: QWSSDVAPTSTCRTSVGVAVLGGF [KLHL20]
- protein stability index (treatment: DMSO): 2.69 ± 0.58
- protein stability index (treatment: MLN4924 1 uM, 8 h): 2.71 ± 0.86

Sequence: GRTGTLIACYVMKHYRFTHAEIIA [CDC14A]
- protein stability index (treatment: DMSO): 2.74 ± 0.89
- protein stability index (treatment: MLN4924 1 uM, 8 h): 3.11 ± 0.45

Sequence: PTDRNLCHFQALGCRTTHSNQEVL [PYCR3]
- protein stability index (treatment: DMSO): 2.49 ± 0.35
- protein stability index (treatment: MLN4924 1 uM, 8 h): 2.37 ± 0.22

Sequence: EKETMQFLNDRLANYLEKVRQLER [KRT36]
- protein stability index (treatment: DMSO): 2.87 ± 0.38
- protein stability index (treatment: MLN4924 1 uM, 8 h): 2.85 ± 0.32

Sequence: VNAVLTQIDQIKRHSNVVILTTSN [TRIP13]
- protein stability index (treatment: DMSO): 1.92 ± 0.46
- protein stability index (treatment: MLN4924 1 uM, 8 h): 1.95 ± 0.24

Sequence: GSKCSPEDLATAYNNRGQIKYFRV [TTC32]
- protein stability index (treatment: DMSO): 2.16 ± 0.21
- protein stability index (treatment: MLN4924 1 uM, 8 h): 2.13 ± 0.37

Sequence: RGKIHAFRGQILGFWEEERPFWEE [CCDC70]
- protein stability index (treatment: DMSO): 2.42 ± 0.14
- protein stability index (treatment: MLN4924 1 uM, 8 h): 2.47 ± 0.24

Sequence: LLRSPPPPSARHRAHPPQRPASSG [KCNA3]
- protein stability index (treatment: DMSO): 4.42 ± 0.18
- protein stability index (treatment: MLN4924 1 uM, 8 h): 4.62 ± 0.33

Sequence: MTRNDVLTGLQLKLGPALKIYEYH [SAMD13]
- protein stability index (treatment: DMSO): 2.24 ± 0.42
- protein stability index (treatment: MLN4924 1 uM, 8 h): 2.22 ± 0.3
